Experimental data published in IntAct's records for PubMed 28424519.

Each substance was assayed against snf2_yeast SNF2 (UniProt P22082).
Sequence of UniProt P22082 (P22082 whole entry): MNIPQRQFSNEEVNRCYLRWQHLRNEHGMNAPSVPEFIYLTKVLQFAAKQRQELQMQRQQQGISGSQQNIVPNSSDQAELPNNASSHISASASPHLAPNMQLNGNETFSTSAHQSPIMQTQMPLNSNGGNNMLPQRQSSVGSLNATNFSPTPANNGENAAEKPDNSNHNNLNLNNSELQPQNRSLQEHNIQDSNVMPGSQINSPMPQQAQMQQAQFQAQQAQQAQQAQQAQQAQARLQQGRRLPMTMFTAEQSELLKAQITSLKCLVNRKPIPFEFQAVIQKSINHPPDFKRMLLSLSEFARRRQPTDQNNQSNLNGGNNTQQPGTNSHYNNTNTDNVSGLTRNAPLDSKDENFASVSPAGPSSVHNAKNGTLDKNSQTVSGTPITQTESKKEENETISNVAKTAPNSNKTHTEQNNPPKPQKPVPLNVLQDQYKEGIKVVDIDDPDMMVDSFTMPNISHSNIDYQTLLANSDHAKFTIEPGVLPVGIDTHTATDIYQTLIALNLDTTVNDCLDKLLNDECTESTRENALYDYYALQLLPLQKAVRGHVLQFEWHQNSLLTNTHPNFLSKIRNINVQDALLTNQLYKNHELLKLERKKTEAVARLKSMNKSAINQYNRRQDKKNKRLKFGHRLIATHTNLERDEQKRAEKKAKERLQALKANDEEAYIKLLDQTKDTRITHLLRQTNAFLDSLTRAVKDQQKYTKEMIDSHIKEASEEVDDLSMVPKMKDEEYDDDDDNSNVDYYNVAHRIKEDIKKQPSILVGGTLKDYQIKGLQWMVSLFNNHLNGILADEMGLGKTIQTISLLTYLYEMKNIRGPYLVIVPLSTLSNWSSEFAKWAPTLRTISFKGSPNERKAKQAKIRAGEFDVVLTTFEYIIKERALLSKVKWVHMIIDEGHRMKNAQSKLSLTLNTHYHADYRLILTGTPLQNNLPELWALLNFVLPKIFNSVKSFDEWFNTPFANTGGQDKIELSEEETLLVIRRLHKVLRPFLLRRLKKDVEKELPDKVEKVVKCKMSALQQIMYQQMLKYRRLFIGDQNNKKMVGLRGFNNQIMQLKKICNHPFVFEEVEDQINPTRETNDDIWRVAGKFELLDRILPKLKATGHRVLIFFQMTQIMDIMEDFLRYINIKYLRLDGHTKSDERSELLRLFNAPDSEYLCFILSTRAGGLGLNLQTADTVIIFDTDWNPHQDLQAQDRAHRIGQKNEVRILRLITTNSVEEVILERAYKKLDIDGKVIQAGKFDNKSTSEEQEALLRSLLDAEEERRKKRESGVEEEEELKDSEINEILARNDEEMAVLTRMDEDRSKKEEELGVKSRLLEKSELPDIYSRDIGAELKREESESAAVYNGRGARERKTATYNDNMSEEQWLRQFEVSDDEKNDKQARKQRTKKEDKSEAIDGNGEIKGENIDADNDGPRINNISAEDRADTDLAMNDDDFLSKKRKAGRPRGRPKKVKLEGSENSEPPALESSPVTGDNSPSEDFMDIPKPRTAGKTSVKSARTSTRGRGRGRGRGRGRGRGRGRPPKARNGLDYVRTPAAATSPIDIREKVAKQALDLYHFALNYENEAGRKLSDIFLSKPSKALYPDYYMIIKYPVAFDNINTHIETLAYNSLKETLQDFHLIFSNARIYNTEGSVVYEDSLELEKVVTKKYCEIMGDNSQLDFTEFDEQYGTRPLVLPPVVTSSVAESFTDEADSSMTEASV

Effect of a mutation on the interaction, decreasing interaction:
Histone H4 (Saccharomyces cerevisiae) (from UniProt P02309) R18A, Histone H4 (Saccharomyces cerevisiae) (from UniProt P02309) K17A, Histone H4 (Saccharomyces cerevisiae) (from UniProt P02309) K17A;R18A;R20A, Histone H4 (Saccharomyces cerevisiae) (from UniProt P02309) R20A
